Laboratory results: patent US20140274782A1, “AFFINITY REAGENTS AND METHODS FOR DETECTION, PURIFICATION, AND PROTEOMIC ANALYSIS OF METHYLATED PROTEINS” (The Board of Trustees of the Leland Stanford Junior …, priority 2013, published 2014)

What was measured:
3×MBT domain of L3MBTL1 = assay: Triple SILAC pull-down, 3xMBT/3xMBTD355N ratio (cytoplasmic, nuclear and chromatin fractions of 293T cells); type: binding, human; settings: SILAC ratio, pull-down 3xMBT vs 3xMBTD355N; for 3xMBT/D355N UNC Heavy: experiment with UNC0638 in heavy SILAC media; for 3xMBT/D355N UNC Light: experiment with UNC0638 in light SILAC media;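 on all read-outs here: proteins quantified with MaxQuant, requiring at least two unique peptides and quantification in both label directions, normalized to the mean of proteins from a digested loading control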
G9a and GLP = target: T1, G9a and GLP (Homo sapiens, UniProt Q96KQ7+Q9H9B1); assay: Triple SILAC pull-down after UNC0638 treatment of 293T cells, DMSO/UNC0638 ratio of protein captured by 3×MBT; type: cell-based; design: endogenous in cells; host or cells: HEK 293T; settings: for Relative to UNC0638 UNC Heavy / Relative to UNC0638 UNC Light: SILAC ratio DMSO/UNC0638 of protein pulled down with 3xMBT; for Relative to UNC0638 UNC Heavy: UNC0638 in heavy SILAC media; for Relative to UNC0638 UNC Light: UNC0638 in light SILAC media; for Relative to UNC0638 Average: average of UNC Light and UNC Heavy experiments;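 on all read-outs here: mass spectrometry (Q-Exactive) SILAC quantitation, DMSO/UNC0638 ratio computed after subtracting 3×MBTD355N mutant pull-down background, only proteins with at least twofold 3×MBT over mutant signal considered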
T1 sequence (Q96KQ7 2-1210 limits assumed): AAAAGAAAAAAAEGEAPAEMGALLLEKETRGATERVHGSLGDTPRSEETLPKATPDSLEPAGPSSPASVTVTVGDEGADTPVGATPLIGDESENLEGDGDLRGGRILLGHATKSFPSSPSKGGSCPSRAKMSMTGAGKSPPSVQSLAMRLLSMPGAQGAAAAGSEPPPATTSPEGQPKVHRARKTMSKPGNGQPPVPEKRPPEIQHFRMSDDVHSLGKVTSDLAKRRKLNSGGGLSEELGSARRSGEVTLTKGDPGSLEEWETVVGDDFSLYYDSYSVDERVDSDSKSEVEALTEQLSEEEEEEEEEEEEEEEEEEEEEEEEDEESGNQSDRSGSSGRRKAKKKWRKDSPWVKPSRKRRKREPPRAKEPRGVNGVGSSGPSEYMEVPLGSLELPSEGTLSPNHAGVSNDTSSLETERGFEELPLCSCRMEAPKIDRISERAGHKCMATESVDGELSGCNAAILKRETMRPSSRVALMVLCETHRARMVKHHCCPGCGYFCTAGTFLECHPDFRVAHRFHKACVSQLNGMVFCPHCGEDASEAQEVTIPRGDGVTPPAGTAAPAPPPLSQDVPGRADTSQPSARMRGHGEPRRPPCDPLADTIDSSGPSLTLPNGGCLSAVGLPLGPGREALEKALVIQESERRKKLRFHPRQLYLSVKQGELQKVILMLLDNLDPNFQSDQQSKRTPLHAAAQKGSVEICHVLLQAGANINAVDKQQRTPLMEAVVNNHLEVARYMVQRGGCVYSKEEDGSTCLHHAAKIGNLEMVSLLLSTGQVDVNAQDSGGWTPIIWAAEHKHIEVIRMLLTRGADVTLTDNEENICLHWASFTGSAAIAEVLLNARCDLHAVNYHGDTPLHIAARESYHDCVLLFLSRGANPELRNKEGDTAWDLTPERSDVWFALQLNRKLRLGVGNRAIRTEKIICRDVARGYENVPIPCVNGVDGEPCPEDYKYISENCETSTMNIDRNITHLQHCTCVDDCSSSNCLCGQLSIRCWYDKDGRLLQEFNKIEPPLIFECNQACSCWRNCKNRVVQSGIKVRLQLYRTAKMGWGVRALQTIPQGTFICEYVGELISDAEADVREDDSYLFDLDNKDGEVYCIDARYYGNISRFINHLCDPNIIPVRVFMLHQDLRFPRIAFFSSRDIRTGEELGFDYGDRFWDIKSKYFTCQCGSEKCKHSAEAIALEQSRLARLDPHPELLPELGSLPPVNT
T1 sequence (Q9H9B1 2-1298 limits assumed): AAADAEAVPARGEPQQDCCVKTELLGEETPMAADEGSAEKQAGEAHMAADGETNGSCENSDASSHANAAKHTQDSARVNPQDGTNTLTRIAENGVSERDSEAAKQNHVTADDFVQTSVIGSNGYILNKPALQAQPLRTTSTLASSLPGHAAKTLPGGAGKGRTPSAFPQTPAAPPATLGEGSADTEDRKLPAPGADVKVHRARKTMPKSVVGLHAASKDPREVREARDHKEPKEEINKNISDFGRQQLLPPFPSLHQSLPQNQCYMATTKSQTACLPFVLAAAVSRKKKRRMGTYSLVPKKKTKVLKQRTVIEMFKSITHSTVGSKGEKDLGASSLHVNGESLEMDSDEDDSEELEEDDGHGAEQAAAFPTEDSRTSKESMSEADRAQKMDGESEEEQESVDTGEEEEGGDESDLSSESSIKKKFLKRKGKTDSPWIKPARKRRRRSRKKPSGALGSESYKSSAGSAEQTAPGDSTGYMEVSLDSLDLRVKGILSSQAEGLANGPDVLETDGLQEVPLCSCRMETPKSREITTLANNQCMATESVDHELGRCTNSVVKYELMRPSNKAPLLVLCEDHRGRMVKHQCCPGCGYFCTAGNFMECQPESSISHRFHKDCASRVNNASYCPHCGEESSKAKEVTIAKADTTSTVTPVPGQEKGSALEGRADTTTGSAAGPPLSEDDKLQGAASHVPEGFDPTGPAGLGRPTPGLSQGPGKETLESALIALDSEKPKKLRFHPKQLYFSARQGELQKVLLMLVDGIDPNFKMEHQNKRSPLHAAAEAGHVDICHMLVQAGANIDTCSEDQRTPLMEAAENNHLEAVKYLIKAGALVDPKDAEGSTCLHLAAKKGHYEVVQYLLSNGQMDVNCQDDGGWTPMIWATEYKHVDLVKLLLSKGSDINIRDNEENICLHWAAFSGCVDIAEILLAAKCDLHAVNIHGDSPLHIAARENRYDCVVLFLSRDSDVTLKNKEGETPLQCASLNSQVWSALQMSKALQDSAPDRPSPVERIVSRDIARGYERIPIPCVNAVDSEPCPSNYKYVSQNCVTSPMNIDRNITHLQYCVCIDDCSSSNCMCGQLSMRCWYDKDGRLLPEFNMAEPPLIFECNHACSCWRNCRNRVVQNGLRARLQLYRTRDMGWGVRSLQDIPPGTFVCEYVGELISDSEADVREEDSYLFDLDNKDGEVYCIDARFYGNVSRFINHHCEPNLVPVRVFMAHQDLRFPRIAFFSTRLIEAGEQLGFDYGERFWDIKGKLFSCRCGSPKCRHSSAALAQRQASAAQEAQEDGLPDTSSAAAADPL

Row | Molecule | 3xMBT/D355N UNC Heavy (3×MBT domain of L3MBTL1) [log base 2] | 3xMBT/D355N UNC Light (3×MBT domain of L3MBTL1) [log base 2] | Relative to UNC0638 UNC Heavy (G9a and GLP) [log base 2] | Relative to UNC0638 UNC Light (G9a and GLP) [log base 2] | Relative to UNC0638 Average (G9a and GLP) [log base 2]
1 | RBM14 (protein, UniProt Q96PK6 1-669, looked up) RNA-binding protein 14: MKIFVGNVDGADTTPEELAALFAPYGTVMSCAVMKQFAFVHMRENAGALRAIEALHGHELRPGRALVVEMSRPRPLNTWKIFVGNVSAACTSQELRSLFERRGRVIECDVVKDYAFVHMEKEADAKAAIAQLNGKEVKGKRINVELSTKGQKKGPGLAVQSGDKTKKPGAGDTAFPGTGGFSATFDYQQAFGNSTGGFDGQARQPTPPFFGRDRSPLRRSPPRASYVAPLTAQPATYRAQPSVSLGAAYRAQPSASLGVGYRTQPMTAQAASYRAQPSVSLGAPYRGQLASPSSQSAAASSLGPYGGAQPSASALSSYGGQAAAASSLNSYGAQGSSLASYGNQPSSYGAQAASSYGVRAAASSYNTQGAASSLGSYGAQAASYGAQSAASSLAYGAQAASYNAQPSASYNAQSAPYAAQQAASYSSQPAAYVAQPATAAAYASQPAAYAAQATTPMAGSYGAQPVVQTQLNSYGAQASMGLSGSYGAQSAAAATGSYGAAAAYGAQPSATLAAPYRTQSSASLAASYAAQQHPQAAASYRGQPGNAYDGAGQPSAAYLSMSQGAVANANSTPPPYERTRLSPPRASYDDPYKKAVAMSKRYGSDRRLAELSDYRRLSESQLSFRRSPTKSSLDYRRLPDAHSDYARYSGSYNDYLRAAQMHSGYQRRM | 0.82 | 1.89 | 0.06 | 0.17 | 0.11
2 | CSDE1 (protein, UniProt O75534 1-798, looked up) Cold shock domain-containing …: MSFDPNLLHNNGHNGYPNGTSAALRETGVIEKLLTSYGFIQCSERQARLFFHCSQYNGNLQDLKVGDDVEFEVSSDRRTGKPIAVKLVKIKQEILPEERMNGQVVCAVPHNLESKSPAAPGQSPTGSVCYERNGEVFYLTYTPEDVEGNVQLETGDKINFVIDNNKHTGAVSARNIMLLKKKQARCQGVVCAMKEAFGFIERGDVVKEIFFHYSEFKGDLETLQPGDDVEFTIKDRNGKEVATDVRLLPQGTVIFEDISIEHFEGTVTKVIPKVPSKNQNDPLPGRIKVDFVIPKELPFGDKDTKSKVTLLEGDHVRFNISTDRRDKLERATNIEVLSNTFQFTNEAREMGVIAAMRDGFGFIKCVDRDVRMFFHFSEILDGNQLHIADEVEFTVVPDMLSAQRNHAIRIKKLPKGTVSFHSHSDHRFLGTVEKEATFSNPKTTSPNKGKEKEAEDGIIAYDDCGVKLTIAFQAKDVEGSTSPQIGDKVEFSISDKQRPGQQVATCVRLLGRNSNSKRLLGYVATLKDNFGFIETANHDKEIFFHYSEFSGDVDSLELGDMVEYSLSKGKGNKVSAEKVNKTHSVNGITEEADPTIYSGKVIRPLRSVDPTQTEYQGMIEIVEEGDMKGEVYPFGIVGMANKGDCLQKGESVKFQLCVLGQNAQTMAYNITPLRRATVECVKDQFGFINYEVGDSKKLFFHVKEVQDGIELQAGDEVEFSVILNQRTGKCSACNVWRVCEGPKAVAAPRPDRLVNRLKNITLDDASAPRLMVLRQPRGPDNSMGFGAERKIRQAGVID | 2.33 | 2.17 | 0.16 | 0.08 | 0.12
3 | CBR1 (protein, UniProt P16152 2-277, looked up) Carbonyl reductase [NADPH] 1: SSGIHVALVTGGNKGIGLAIVRDLCRLFSGDVVLTARDVTRGQAAVQQLQAEGLSPRFHQLDIDDLQSIRALRDFLRKEYGGLDVLVNNAGIAFKVADPTPFHIQAEVTMKTNFFGTRDVCTELLPLIKPQGRVVNVSSIMSVRALKSCSPELQQKFRSETITEEELVGLMNKFVEDTKKGVHQKEGWPSSAYGVTKIGVTVLSRIHARKLSEQRKGDKILLNACCPGWVRTDMAGPKATKSPEEGAETPVYLALLPPDAEGPHGQFVSEKRVEQW | 1.12 | 0.84 | −0.09 | 1.14 | 0.53
4 | PRPF38B (protein, UniProt Q5VTL8 2-546, looked up) Pre-mRNA-splicing factor 38B: ANNSPALTGNSQPQHQAAAAAAQQQQQCGGGGATKPAVSGKQGNVLPLWGNEKTMNLNPMILTNILSSPYFKVQLYELKTYHEVVDEIYFKVTHVEPWEKGSRKTAGQTGMCGGVRGVGTGGIVSTAFCLLYKLFTLKLTRKQVMGLITHTDSPYIRALGFMYIRYTQPPTDLWDWFESFLDDEEDLDVKAGGGCVMTIGEMLRSFLTKLEWFSTLFPRIPVPVQKNIDQQIKTRPRKIKKDGKEGAEEIDRHVERRRSRSPRRSLSPRRSPRRSRSRSHHREGHGSSSFDRELEREKERQRLEREAKEREKERRRSRSIDRGLERRRSRSRERHRSRSRSRDRKGDRRDRDREREKENERGRRRDRDYDKERGNEREKERERSRERSKEQRSRGEVEEKKHKEDKDDRRHRDDKRDSKKEKKHSRSRSRERKHRSRSRSRNAGKRSRSRSKEKSSKHKNESKEKSNKRSRSGSQGRTDSVEKSKKREHSPSKEKSRKRSRSKERSHKRDHSDSKDQSDKHDRRRSQSIEQESQEKQHKNKDETV | 2.44 | 2.96 | −0.03 | 0.26 | 0.12
